Source: patent US20220396612A1 (UNIVERSIT DE TOURS, published 2022)

T1: virus-like particles (VLPs) of BK polyomavirus VP-1 protein, serotype IV (BK virus (BKPyV), serotype IV, UniProt P14996 1-362)
T1 construct: native VLPs; also called VLP IV
T1 chain: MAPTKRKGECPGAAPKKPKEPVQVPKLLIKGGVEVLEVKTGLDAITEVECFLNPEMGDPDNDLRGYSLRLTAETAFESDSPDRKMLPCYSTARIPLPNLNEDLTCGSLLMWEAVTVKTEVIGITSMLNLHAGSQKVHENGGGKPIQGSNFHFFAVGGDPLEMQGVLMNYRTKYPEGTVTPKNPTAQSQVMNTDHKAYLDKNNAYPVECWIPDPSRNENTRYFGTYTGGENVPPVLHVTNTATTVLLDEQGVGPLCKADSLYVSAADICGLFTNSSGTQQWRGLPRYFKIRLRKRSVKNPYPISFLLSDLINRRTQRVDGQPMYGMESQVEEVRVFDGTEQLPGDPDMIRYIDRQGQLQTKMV

T2: virus-like particles (VLPs) of BK polyomavirus VP-1 protein, serotype II (BK virus (BKPyV), serotype II, UniProt P14996 1-362)
T2 construct: native VLPs; also called VLP II
T2 chain: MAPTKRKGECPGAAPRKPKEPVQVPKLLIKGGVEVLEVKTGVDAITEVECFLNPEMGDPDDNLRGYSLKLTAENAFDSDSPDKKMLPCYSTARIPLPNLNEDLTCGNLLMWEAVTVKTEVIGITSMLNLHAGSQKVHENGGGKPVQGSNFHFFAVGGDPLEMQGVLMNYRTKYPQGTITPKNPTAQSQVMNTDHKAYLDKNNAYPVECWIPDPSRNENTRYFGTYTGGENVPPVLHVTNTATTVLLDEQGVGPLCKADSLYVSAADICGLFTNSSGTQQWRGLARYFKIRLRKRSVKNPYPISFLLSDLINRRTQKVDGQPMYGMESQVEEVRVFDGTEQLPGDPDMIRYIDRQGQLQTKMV

T3: virus-like particles (VLPs) of BK polyomavirus VP-1 protein, serotype Ib2 (BK virus (BKPyV), serotype Ib2, PA …, UniProt P03088 1-362)
T3 construct: native VLPs; also the immunogen; also called VLP Ib2; BK Ib2
T3 chain: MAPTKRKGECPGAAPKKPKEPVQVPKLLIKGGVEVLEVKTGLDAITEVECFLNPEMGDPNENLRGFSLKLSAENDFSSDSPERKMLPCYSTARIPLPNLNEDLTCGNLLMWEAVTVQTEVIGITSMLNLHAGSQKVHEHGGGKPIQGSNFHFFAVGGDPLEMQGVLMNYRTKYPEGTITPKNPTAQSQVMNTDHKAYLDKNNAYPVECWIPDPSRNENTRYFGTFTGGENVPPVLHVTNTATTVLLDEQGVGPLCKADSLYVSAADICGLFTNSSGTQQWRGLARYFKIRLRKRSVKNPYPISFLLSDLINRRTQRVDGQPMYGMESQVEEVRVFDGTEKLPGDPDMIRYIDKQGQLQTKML

T4: virus-like particles (VLPs) of BK polyomavirus VP-1 protein, serotype Ia (BK virus (BKPyV), serotype Ia, UniProt P03088 1-361)
T4 construct: self-assembled native VLPs coated on ELISA plates; also called VLP Ia; BKV VP-1, serotype Ia
T4 chain: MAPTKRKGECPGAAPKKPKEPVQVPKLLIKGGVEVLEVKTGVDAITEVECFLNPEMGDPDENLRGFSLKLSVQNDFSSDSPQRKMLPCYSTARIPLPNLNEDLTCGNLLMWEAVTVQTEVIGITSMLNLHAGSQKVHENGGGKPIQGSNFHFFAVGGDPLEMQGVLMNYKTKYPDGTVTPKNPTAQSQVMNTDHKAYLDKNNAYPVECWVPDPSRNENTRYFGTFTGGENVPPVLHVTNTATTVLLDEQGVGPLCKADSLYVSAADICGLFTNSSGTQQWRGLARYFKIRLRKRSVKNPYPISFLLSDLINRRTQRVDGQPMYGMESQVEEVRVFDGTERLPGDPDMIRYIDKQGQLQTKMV


Assays:
[1] = molecular target: T1, virus-like particles (VLPs) of BK …; assay: ELISA on coated VLP; supernatant 1/10
Description: (§1) To do this, the VLPs produced were deposited at a concentration of 1 μg/mL in PBS and incubated overnight at +4° C. The wells were then blocked for 1 h at +37° C. with a PBS/FCS (phosphate-buffered saline/fetal calf serum) mixture. After dilution in a dilution buffer containing FCS, PBS and Tween® 20, the various hybridoma culture supernatants were added for 1 h at +37° C. The wells were washed four times in a row with Wash Buffer and a secondary anti-mouse antibody coupled to peroxidase was added to the 1:2000 dilution for 1 h at +37° C. The wells were washed four more times and the substrate (OPD (ortho phenylene diamine)+H₂O₂) was added for 30 min at room temperature. A stop solution (H₂SO₄ 4N) was then added and each well was read by measuring the absorbance at 492 nm with a spectrophotometer. The value obtained for the average of the control wells (PBS in the first step) is subtracted from the optical density values obtained for each well.

[2] = molecular target: T2, virus-like particles (VLPs) of BK …; assay: ELISA on coated VLP; supernatant 1/10
Description: as §1

[3] = molecular target: T3, virus-like particles (VLPs) of BK …; assay: ELISA on coated VLP; supernatant 1/10
Description: as §1

[4] = molecular target: T4, virus-like particles (VLPs) of BK …; assay: ELISA on coated VLP; supernatant 1/10
Description: as §1

[5] = molecular target: T1, virus-like particles (VLPs) of BK …; assay: ELISA on coated VLP; supernatant 1/640
Description: as §1

[6] = molecular target: T2, virus-like particles (VLPs) of BK …; assay: ELISA on coated VLP; supernatant 1/640
Description: as §1

[7] = molecular target: T3, virus-like particles (VLPs) of BK …; assay: ELISA on coated VLP; supernatant 1/640
Description: as §1

[8] = molecular target: T4, virus-like particles (VLPs) of BK …; assay: ELISA on coated VLP; supernatant 1/640
Description: as §1

[9] = molecular target: T2, virus-like particles (VLPs) of BK …; assay: ELISA on coated VLP; supernatant 1/20
Description: as §1

[10] = molecular target: T4, virus-like particles (VLPs) of BK …; assay: ELISA on coated VLP; supernatant 1/20
Description: as §1

[11] = molecular target: T1, virus-like particles (VLPs) of BK …; assay: ELISA on not denatured VLP (threshold OD>0.5)
Description: (§2) The wells were then blocked for 1 hour at +37° C. with a PBS/SVF mixture. After dilution in a dilution buffer containing SVF, PBS and Tween® 20, the individual culture supernatants or purified antibodies were added for 1 hour at +37° C. The wells were washed four times in a row with Wash Buffer and a secondary anti-mouse peroxidase antibody was added to the 1/2000 dilution for 1 hour at +37° C. The wells were washed again four times in a row and the substrate was added for 30 minutes at room temperature. A stop solution was added and then each well was read by measuring the absorbance at 492 nm with a spectrophotometer. The value obtained for the average of the control wells (PBS in the first step) was subtracted from the optical density values obtained for each well (detection threshold: OD>0.5).

[12] = molecular target: T2, virus-like particles (VLPs) of BK …; assay: ELISA on not denatured VLP (threshold OD>0.5)
Description: as §2

[13] = molecular target: T4, virus-like particles (VLPs) of BK …; assay: ELISA on not denatured VLP (threshold OD>0.5)
Description: as §2

Row | Binder | OD 492 nm [1] [OD] | OD 492 nm [2] [OD] | OD 492 nm [3] [OD] | OD 492 nm [4] [OD] | OD 492 nm [5] [OD] | OD 492 nm [6] [OD] | OD 492 nm [7] [OD] | OD 492 nm [8] [OD] | OD 492 nm [9] [OD] | OD 492 nm [10] [OD] | OD 492 nm [11] [OD] | OD 492 nm [12] [OD] | OD 492 nm [13] [OD]
1 | monoclonal antibody ‘H6’ secreted by clone BK6A2H6 (antibody, V domains shown) VH: EVQLQQSGPELVKPGASVKISCKASGYSFTGYFMNWVKQSHGKSLEWIGRINPYNGDTFYNQKFKGKATLTVDKSSSTAHMELLSLTSEDSAVYYCGSYYYGDYFDYWGQGTTLTVSS VL: SIVMTQIPKFLLVSEGDRVTITCKASQSVSNDVAWYQQKSGQSPKLLIYYASNRYTGVPDRFTGSGYGTDFTFTISTVQAEDLAVYFCQQDYSSPLTFGAGTKLELKR | 3.29 | 2.96 | 1.71 | 2.99 | 1.59 | 0.08 | 0.17 | 2.49 | 0.86 | 3.06 | – | – | –
2 | monoclonal antibody ‘18A2’ derived from hybridoma 18A2 (antibody, V domains shown, Mouse hybridoma antibody) VH: DVQLQESGPGLVKPSQSLSLTCSVTGYSITSGYYWNWIRQFPGNKLEWMGYISYDGSNNYNPSLKNRISITRDTSKNQFFLKLNSVTTEDTATYYCARWEGTTDYWGQGTTLTVSS VL: not shown | – | – | – | – | – | – | – | – | – | – | 2.99 | 1.71 | 3.84
3 | monoclonal antibody ‘F6’ secreted by clone BK6A2F6 (antibody) heavy: EVQLQQSGPELVKPGASVKISCKASGYSFTGYFMNWVKQSHGKSLEWIGRINPYNGDTFYNQKFKGKATLTVDKSSSTAHMELLSLTSEDSAVYYCGSYYYGDYFDYWGQGTTLTVSSAKTTPPSVYPLAPGSAAQTNSMVTLGCLVKGYFPEPVTVTWNSGSLSSGVHTFPAVLQSDLYTLSSSVTVPSSTWPSETVTCNVAHPASSTKVDKKIVPRDCGCKPCICTVPEVSSVFIFPPKPKDVLTITLTPKVTCVVVDISKDDPEVQFSWFVDDVEVHTAQTQPREEQFNSTFRSVSELPIMHQDWLNGKEFKCRVNSAAFPAPIEKTISKTKGRPKAPQVYTIPPPKEQMAKDKVSLTCMITDFFPEDITVEWQWNGQPAENYKNTQPIMDTDGSYFVYSKLNVQKSNWEAGNTFTCSVLHEGLHNHHTEKSLSHSPGK light: […] | 3.25 | 3 | 2.7 | 3.08 | 2.86 | 0.14 | 0.19 | 3.07 | 1.65 | 3.23 | 0.788 | 3 | 3.94
